Patent publication US20240352088A1 (AICHI PREFECTURE, published 2024)

Molecular target: T1, IL-6 (interleukin-6) (human, UniProt P05231 30-212)
T1 construct: also called recombinant IL-6; human IL-6
Experiment: plasma IL-6 by ELISA 1, 2 and 4 h after i.v. human IL-6 (2 µg) in NSG mice given the CAR-T cells
Description: An NALM6 cell line stably transduced with EGFP-P2A-Luc2 (GL) (referred to as a “NALM6-GL cell line”) was administered at 2.5×10⁶ cells/mouse into the tail vein of the NSG mice (Charles River Laboratories Japan, JAX Mice Stock No: 005557). After 10 days, control cells transduced with only a CAR gene or GP130-IL6R-ca7R-transduced CAR-T cells were administered into the tail vein at 3×10⁶ cells/mouse. After another 7 days, 2 μg of human IL-6 was intravenously administered, and blood was collected at 1 hour, 2 hours, and 4 hours after the injection to measure the concentration of IL-6 in plasma by ELISA. Note that the control cells or GP130-IL6R-ca7R-transduced CAR-T cells used for the administration into the NSG mice were stimulated again with the NALM6-GL cell line on day 7 of culture and expanded, and cultured for 11 days.

binding result: binds
B1: chimeric cytokine receptor GP130-IL6R-ca7R (receptor)
chain: ELLDPCGYISPESPVVQLHSNFTAVCVLKEKCMDYFHVNANYIVWKTNHFTIPKEQYTIINRTASSVTFTDIASLNIQLTCNILTFGQLEQNVYGITIISGLPPEKPKNLSCIVNEGKKMRCEWDGGRETHLETNFTLKSEWATHKFADCKAKRDTPTSCTVDYSTVYFVNIEVWVEAENALGKVTSDHINFDPVYKVKPNPPHNLSVINSEELSSILKLTWTNPSIKSVIILKYNIQYRTKDASTWSQIPPEDTASTRSSFTVQDLKPFTEYVFRIRCMKEDGKGYWSDWSEEASGITYEDRPGSAGSAAGSGEFVDVPPEEPQLSCFRKSPLSNVVCEWGPRSTPSLTTKAVLLVRKFQNSPAEDFQEPCQYSQESQKFSCQLAVPEGDSSFYIVSMCVASSVGSKFSKTQTFQGCGILQPDPPANITVTAVARNPRWLSVTWQDPHSWNSSFYRLRFELRYRAERSKTFTTWMVKDLQHHCVIHDAWSGLRHVVQLRAQEEFGQGEWSEWSPEAMGTPWTESRSPPAENEVSTPMQALTTNKDDDNILFRDSANATSLPVQDSSSVPLPAAANNSSGEMDPILLPPCLTISILSFFSVALLVILACVLWKKRIKPIVWPSLPDHKKTLEHLCKKPRKNLNVSFNPESFLDCQIHRVDDIQARDEVEGFLQDTFPQQLEESEKQRLGGDVQSPNCPSEDVVITPESFGRDSSLTCLAGNVSACDAPILSSSRSLDCRESGKNGPHVYQDLLLSLGTTNSTLPPPFSLQSGILTLNPVAQGQPILTSLGSNQEEAYVTMSSFYQNQ
notes: Expressed on the surface of human CAR-T cells; also called GP130-IL6R-ca7R(WT)
